Data on one substance can be found in paper PMC4565128.

This assay addresses Aldehyde dehydrogenase 7A1 (full-length recombinant human cytosolic ALDH7A1 isoform 2) (human). Kind of assay: SAXS.

On to “Aldehyde dehydrogenase 7A1 (full-length recombinant human cytosolic ALDH7A1 isoform 2) (enzyme)”, for which the stoichiometry N – broadly, the number of molecules, sites or subunits per partner or assembly – was found to be 4.
